Molecular target: nucleolin (on the surface of live Huh7 cells) (UniProt P19338)
Test: flow cytometry on live Huh7 cells
Conditions: 5 mM MgCl2, whole-cell apparent Kd, Dulbecco's PBS, 4.5 g/L glucose, 5 mM MgCl2, 0.1 mg/mL yeast tRNA, 1 mg/mL BSA, on ice 30 min, 2x10^5 cells in 200 uL, pH not stated

Sequence of UniProt P19338 (P19338 whole entry): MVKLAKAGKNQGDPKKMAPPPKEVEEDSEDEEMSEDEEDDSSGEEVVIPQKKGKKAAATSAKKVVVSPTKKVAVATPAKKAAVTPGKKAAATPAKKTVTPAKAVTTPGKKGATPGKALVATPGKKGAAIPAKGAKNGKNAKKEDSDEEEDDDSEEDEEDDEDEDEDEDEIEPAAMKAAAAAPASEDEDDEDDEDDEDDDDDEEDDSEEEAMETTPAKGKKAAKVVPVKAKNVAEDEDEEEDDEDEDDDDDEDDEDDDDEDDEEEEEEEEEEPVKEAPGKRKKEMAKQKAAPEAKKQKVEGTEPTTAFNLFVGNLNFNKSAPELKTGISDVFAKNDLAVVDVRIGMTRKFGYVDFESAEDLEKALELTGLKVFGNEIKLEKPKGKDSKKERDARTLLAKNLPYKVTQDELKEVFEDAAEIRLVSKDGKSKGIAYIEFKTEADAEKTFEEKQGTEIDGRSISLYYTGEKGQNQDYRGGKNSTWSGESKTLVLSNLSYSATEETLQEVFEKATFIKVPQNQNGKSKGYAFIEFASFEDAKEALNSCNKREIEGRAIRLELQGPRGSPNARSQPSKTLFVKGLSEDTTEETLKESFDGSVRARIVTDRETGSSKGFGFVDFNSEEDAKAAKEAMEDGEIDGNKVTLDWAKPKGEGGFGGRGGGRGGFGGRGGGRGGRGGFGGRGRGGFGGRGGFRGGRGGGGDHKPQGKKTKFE

## GGTGGTGGTGGTTGTGGTGGTGGTGG [AS1411 (AGRO100)]
  Kd: 54.8 nM

## GGTGGTGGTGGTTGTGGTGGTGGTGG [AS1411-Dox adduct]
Doxorubicin adducts via formaldehyde methylene links to guanine N2, 5.4 +/- 0.1 Dox per strand
  Kd: 57.3 nM

Reference: publication PMC4629891
